The target of assay [1] is T1, huPD-L1-His (human PD-L1 with a C-terminal polyhistidine tag) (human, UniProt Q9NZQ7 19-239).
T1 construct: Bought; also called biotinylated huPD-L1-His
Nature of the assay: SPR (Biacore), binder captured by anti-human IgG Fc, huPD-L1-His in solution, 25 C, 1:1 model. On the procedure:
(§1) The binding kinetics and affinity of exemplary fusion proteins to huPD-L1-His or huCD137-His (human PD-L1 or human CD137 with a C-terminal polyhistidine tag, R&D Systems) were determined by surface plasmon resonance (SPR) using a Biacore 8K or a Biacore T200 (GE Healthcare).
(§2) The anti-human IgG Fc antibody (GE Healthcare) was immobilized on a CM5 sensor chip using standard amine chemistry: the carboxyl groups on the chip were activated using 1-ethyl-3-(3-dimethylaminopropyl)-carbodiimide (EDC) and N-hydroxysuccinimide (NHS). Subsequently, anti-human IgG Fc antibody solution (GE Healthcare) at a concentration of 25 μg/mL in 10 mM sodium acetate (pH 5.0) was applied at a flow rate of 5 μL/min until an immobilization level of 6000-10000 resonance units (RU) was achieved. Residual non-reacted NHS-esters were blocked by passing a solution of 1M ethanolamine across the surface. The reference channel was treated in an analogous manner. […] After each capture step, the needle was washed.
(§3) Double referencing was used and the 1:1 binding model was used to fit the raw data.

Assay [2] concerns the target T2, human PD-L1 expressed on cells (human, UniProt Q9NZQ7 19-290).
T2 construct: whole, on cells; also called Flp-In-CHO::huPDL-1; RKO cells
Nature of the assay: flow cytometry, RKO tumor cells (PD-L1-positive). On the procedure: (§4) 5×10⁴ cells per well were incubated for 1 h in ice-cold PBS containing 5% fetal calf serum (PBS-FCS). A dilution series of the fusion proteins and control antibodies were added to the cells and incubated for 1 h on ice. Cells were washed twice with PBS and then incubated with a goat anti-hIgG Alexa647-labeled antibody for 30 min on ice. Cells were subsequently washed and analyzed using iQue Flow cytometer (Intellicyte Screener). Mean geometric fluorescent signals were plotted and fitted with Graphpad software using nonlinear regression (shared bottom, SLOPE=1).
For flow cytometric analysis, RKO cells were incubated with fusion proteins and detected using a fluorescently labeled anti-human IgG antibody as described in Example 6.

The target in assay [3] is cyCD137-Fc (cynomolgus CD137 C-terminally fused to Fc) (cynomolgus). In words: ELISA, cyCD137-Fc coated, detection anti-NGAL-HRP. On the procedure: (§5) Recombinant huPD-L1-His or cyPD-L1-His (human or cynomolgus PD-L1 with a C-terminal polyhistidine tag, R&D Systems or Sino Biologics) at the concentration of 1 μg/mL in PBS was coated overnight on microtiter plates at 4° C. After washing with PBS-0.05% T (PBS supplemented with 0.05% (v/v) Tween 20), the plates were blocked with 2% BSA (w/v) in PBS-0.1% T (PBS supplemented with 0.1% (v/v) Tween 20) for 1 h at room temperature. […] Bound molecules under study were detected by incubation with 1:5000 diluted anti-human IgG Fc-HRP (Jackson Laboratory) in PBS-0.1% T-2% BSA. After an additional wash step, fluorogenic HRP substrate (QuantaBlu, Thermo) was added to each well and the fluorescence intensity was detected using a fluorescence microplate reader.
(§6) The same ELISA setup was also employed to determine the binding potency of fusion proteins to CD137, where huCD137-His (human CD137 with C-terminal polyhistidine tag, R&D Systems) or cyCD137-Fc (cynomolgus CD137 C-terminally fused to Fc) was instead coated on a microtiter plate. The testing agents were similarly titrated and bound agents were detected via anti-NGAL-HRP.

Assay [4] has as its target T3, human CD137 expressed on cells (human, UniProt Q07011 24-255).
T3 construct: whole, on cells; also called Flp-In-CHO::huCD137; NFκB-luc2/CD137 Jurkat cells
In words: flow cytometry, Flp-In-CHO::huCD137 cells. As to the method:
(§7) The geometric means of the fluorescence intensity were used to calculate EC₅₀ values using nonlinear regression (shared bottom, SLOPE=1).
as §4
For orientation: A flow cytometer gives signals particle by particle.

Assay [5] has as its target T1, huPD-L1-His (human PD-L1 with a …). In words: ELISA, huPD-L1-His coated, detection anti-human IgG Fc-HRP. As to the method: as §5
For orientation: In an ELISA, binding on a coated surface is turned into a signal by an enzyme label.

The target in assay [6] is T4, huCD137-His (human CD137 with a C-terminal polyhistidine tag) (human, UniProt Q07011 24-186).
T4 construct: Bought; also called huCD137-His-Bio
In words: SPR (Biacore), binder captured by anti-human IgG Fc, huCD137-His in solution, 25 C, 1:1 model. On the procedure:
as §1, §2, §3
In general terms: SPR reads the build-up and loss of mass on a sensor chip optically.

In assay [7] the target is T5, cyPD-L1-His (cynomolgus PD-L1 with a C-terminal polyhistidine tag) (cynomolgus).
T5 construct: Bought
In words: ELISA, cyPD-L1-His coated, detection anti-human IgG Fc-HRP. As to the method:
as §5

Assay [8] concerns the target T4, huCD137-His (human CD137 with a …). Nature of the assay: ELISA, huCD137-His coated, detection anti-NGAL-HRP. As to the method:
as §5, §6

Assay [9] concerns the target T6, huPD-L1-Fc (recombinant human PD-L1 Fc fusion) (human, UniProt Q9NZQ7 19-239).
T6 construct: Bought; also called tracer huPD-L1-Fc
In words: competitive ELISA, huPD-1-His coated, 15 nM huPD-L1-Fc tracer, binder titrated. On the procedure:
Recombinant huPD-1-His (Acrobiosystems) in PBS (1 μg/mL) was coated overnight on microtiter plates at 4° C. The plates were washed five times after each incubation step with 100 μL PBS-0.05% T (PBS supplemented with 0.05% (v/v) Tween 20). The plates were blocked with 2% BSA (w/v) in PBS-0.1% T (PBS supplemented with 0.1% (v/v) Tween 20) for 1 h at room temperature and subsequently washed again. […] The mixtures of fusion proteins and the tracer were added to the plates and incubated for 20 min at room temperature following by five washing steps with 100 μL PBS-0.05% T. Subsequently, a 1:5000 dilution of goat-anti human IgG-Fc HRP (Jackson) was added to the wells and incubated for 1 h. After an additional wash step, fluorogenic HRP substrate (QuantaBlu, Thermo) was added to each well, and the fluorescence intensity was detected using a fluorescence microplate reader.

Assay [10] has as its target T4, huCD137-His (human CD137 with a …). Nature of the assay: dual-binding ELISA, huCD137-His coated, binder titrated, detection with biotinylated huPD-L1-His.
Assay [11] addresses T1, huPD-L1-His (human PD-L1 with a …). In words: dual-binding ELISA, huPD-L1-His coated, binder titrated, detection with biotinylated huCD137-His. As to the method:
Recombinant huPD-L1-His (R&D Systems) in PBS (1 μg/mL) was coated overnight on microtiter plates at 4° C. The plates were washed five times after each incubation step with 100 μL PBS-0.05% T. The plates were blocked with 2% BSA (w/v) in PBS-0.1% T for 1 h at room temperature and subsequently washed again. Different concentrations of tested fusion proteins were added to the wells and incubated for 1 h at room temperature, followed by a wash step. […] After washing, a 1:5000 dilution of ExtrAvidin-HRP (Sigma-Aldrich) in PBS-0.1% T-2% BSA was added to the wells and incubated for 1 h. After an additional wash step, fluorogenic HRP substrate (QuantaBlu, Thermo) was added to each well, and the fluorescence intensity was detected using a fluorescence microplate reader.

Assay [12] deals with T7, cynomolgus PD-L1 expressed on cells (cynomolgus).
T7 construct: whole, on cells; also called Flp-In-CHO::cynoPDL-1
In words: flow cytometry, Flp-In-CHO::cynoPDL-1 cells. As to the method: as §7, §4

Assay [13] has as its target T2, human PD-L1 expressed on cells. In words: flow cytometry, Flp-In-CHO::huPDL-1 cells. As to the method: as §7, §4
Assay [14] has as its target T3, human CD137 expressed on cells. In words: cell-based or functional assay.

T4 sequence (Q07011 24-186 limits assumed): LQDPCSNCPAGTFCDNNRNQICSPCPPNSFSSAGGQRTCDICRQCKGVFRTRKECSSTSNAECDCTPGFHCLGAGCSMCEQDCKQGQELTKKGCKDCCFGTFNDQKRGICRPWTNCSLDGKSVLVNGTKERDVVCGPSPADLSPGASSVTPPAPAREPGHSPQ
T6 sequence (Q9NZQ7 19-239 limits assumed): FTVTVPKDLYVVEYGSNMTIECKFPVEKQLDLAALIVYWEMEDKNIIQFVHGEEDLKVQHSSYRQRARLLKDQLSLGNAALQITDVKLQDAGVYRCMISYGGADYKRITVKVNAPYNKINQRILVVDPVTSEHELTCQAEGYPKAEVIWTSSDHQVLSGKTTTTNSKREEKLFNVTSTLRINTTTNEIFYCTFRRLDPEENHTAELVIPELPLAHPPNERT
T1 sequence (Q9NZQ7 19-239 limits assumed): as above
T3 sequence (Q07011 24-255): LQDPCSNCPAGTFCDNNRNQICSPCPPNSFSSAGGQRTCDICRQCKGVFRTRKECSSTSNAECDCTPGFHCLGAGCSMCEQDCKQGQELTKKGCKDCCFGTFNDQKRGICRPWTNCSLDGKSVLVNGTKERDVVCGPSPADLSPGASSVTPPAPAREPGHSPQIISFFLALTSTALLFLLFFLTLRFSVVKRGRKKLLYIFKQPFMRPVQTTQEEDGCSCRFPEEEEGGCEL
T2 sequence (Q9NZQ7 19-290): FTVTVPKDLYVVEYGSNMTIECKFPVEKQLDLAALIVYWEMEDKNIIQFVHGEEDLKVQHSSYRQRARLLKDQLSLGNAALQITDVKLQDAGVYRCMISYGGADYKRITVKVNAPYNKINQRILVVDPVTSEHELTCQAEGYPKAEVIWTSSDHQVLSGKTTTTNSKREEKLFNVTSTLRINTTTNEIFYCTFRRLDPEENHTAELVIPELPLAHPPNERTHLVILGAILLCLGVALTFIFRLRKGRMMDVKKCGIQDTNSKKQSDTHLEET

B1: fusion protein SEQ ID NOs: 86 and 93 (bispecific antibody, human IgG4 S228P, kappa, F234A L235A)
heavy: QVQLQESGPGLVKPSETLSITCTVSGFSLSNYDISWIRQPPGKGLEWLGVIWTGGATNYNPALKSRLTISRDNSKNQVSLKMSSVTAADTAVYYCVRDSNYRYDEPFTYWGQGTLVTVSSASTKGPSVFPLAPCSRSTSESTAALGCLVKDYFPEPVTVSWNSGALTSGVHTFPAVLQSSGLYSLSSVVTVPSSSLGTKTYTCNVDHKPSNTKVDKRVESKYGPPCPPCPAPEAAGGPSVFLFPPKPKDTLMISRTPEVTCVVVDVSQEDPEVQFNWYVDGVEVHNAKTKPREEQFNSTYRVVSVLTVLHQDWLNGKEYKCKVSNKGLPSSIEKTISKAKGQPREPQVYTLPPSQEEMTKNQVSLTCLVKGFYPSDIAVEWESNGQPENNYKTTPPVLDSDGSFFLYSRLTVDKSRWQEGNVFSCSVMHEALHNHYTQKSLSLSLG
light: QDSTSDLIPAPPLSKVPLQQNFQDNQFHGKWYVVGQAGNIRLREDKDPIKMMATIYELKEDKSYDVTMVKFDDKKCMYDIWTFVPGSQPGEFTLGKIKSFPGHTSSLVRVVSTNYNQHAMVFFKFVFQNREEFYITLYGRTKELTSELKENFIRFSKSLGLPENHIVFPVPIDQCIDGGGGGSGGGGSGGGGSEIVLTQSPDTLSVTPKEKVTLTCRASQSIGTNIHWFQQKPGQSPKLLIKYASESISGVPSRFSGSGSGTDFTLTINSVEAEDAATYYCQQSNSWPYTFGQGTKLEIKRTVAAPSVFIFPPSDEQLKSGTASVVCLLNNFYPREAKVQWKVDNALQSGNSQESVTEQDSKDSTYSLSSTLTLSKADYEKHKVYACEVTHQGLSSPVTKSFNRGEC
notes: Antibody-lipocalin mutein fusion, IgG4 S228P backbone; Bivalent to CD137
Consider B1, for which the Kd (in general, the concentration at which binding is half-saturated) amounted to 1.38 nM in [1] and 3.55 nM in assay [6]. The values for the dissociation rate constant (koff) in assay [1] and in assay [6] were 0.000754 s⁻¹ and 0.00013 s⁻¹, respectively. The kon (in general, the second-order rate constant of association) came to 546000 M⁻¹ s⁻¹ in [1] and 36800 M⁻¹ s⁻¹ in assay [6]. The EC50 – broadly, the concentration at which the effect is half-maximal – in assay [2] was found to be 1.38 nM; in assay [3], 8.1 nM; in [4], 12.7 nM; in assay [5], 0.19 nM; in assay [7], 0.17 nM; in assay [8], 0.35 nM. The EC50 in [10] is 6.7 nM; in assay [11], 0.74 nM; in assay [12], 2.03 nM; in assay [13] it was 4.63 nM. Moreover, the IC50 (as a rule, the concentration that gives 50% inhibition) in assay [9] was 3.2 nM. Moreover, in assay [14], the “EC50 [nM] With RKO cells (CD137 Bioassay, NFκB-luc2/CD137 Jurkat luminescence)” value (from here on “EC50 [nM] With RKO cells”) was 0.264 nM.

B2: reference CD137 antibody SEQ ID NOs: 28 and 29 (antibody, human IgG4 S228P, kappa, V domains shown)
VH: QVQLQQWGAGLLKPSETLSLTCAVYGGSFSGYYWSWIRQSPEKGLEWIGEINHGGYVTYNPSLESRVTISVDTSKNQFSLKLSSVTAADTAVYYCARDYGPGNYDWYFDLWGRGTLVTVSS
VL: EIVLTQSPATLSLSPGERATLSCRASQSVSSYLAWYQQKPGQAPRLLIYDASNRATGIPARFSGSGSGTDFTLTISSLEPEDFAVYYCQQRSNWPPALTFGGGTKVEIKR
notes: also called anti-CD137 benchmark antibody
Take B2: the EC50 in [4] was 1.31 nM. The molecule further returned a Kd in [6] of 6.24 nM. In addition, the “EC50 [nM] With RKO cells” value in assay [14] worked out at 0.814 nM.

B3: PD-L1 antibody SEQ ID NOs: 86 and 87 (building block of the fusion proteins) (antibody, human IgG4 S228P, kappa, F234A L235A, V domains shown)
VH: QVQLQESGPGLVKPSETLSITCTVSGFSLSNYDISWIRQPPGKGLEWLGVIWTGGATNYNPALKSRLTISRDNSKNQVSLKMSSVTAADTAVYYCVRDSNYRYDEPFTYWGQGTLVTVSS
VL: EIVLTQSPDTLSVTPKEKVTLTCRASQSIGTNIHWFQQKPGQSPKLLIKYASESISGVPSRFSGSGSGTDFTLTINSVEAEDAATYYCQQSNSWPYTFGQGTKLEIKR
Consider B3, for which the Kd in assay [1] was 0.593 nM. Moreover, the koff – broadly, the rate constant with which the complex falls apart – in assay [1] stood at 0.000649 s⁻¹. For the same molecule, the kon in [1] stood at 1.09e+06 M⁻¹ s⁻¹. For the same molecule, the EC50 was 0.32 nM in assay [2]; 0.12 nM in [5]; 0.1 nM in [7]; 3.55 nM in assay [12]; 2.96 nM in assay [13]. For the same molecule, in assay [9], the IC50 was 3.5 nM.

B4: fusion protein SEQ ID NOs: 92 and 87 (bispecific antibody, human IgG4 S228P, kappa, F234A L235A)
heavy: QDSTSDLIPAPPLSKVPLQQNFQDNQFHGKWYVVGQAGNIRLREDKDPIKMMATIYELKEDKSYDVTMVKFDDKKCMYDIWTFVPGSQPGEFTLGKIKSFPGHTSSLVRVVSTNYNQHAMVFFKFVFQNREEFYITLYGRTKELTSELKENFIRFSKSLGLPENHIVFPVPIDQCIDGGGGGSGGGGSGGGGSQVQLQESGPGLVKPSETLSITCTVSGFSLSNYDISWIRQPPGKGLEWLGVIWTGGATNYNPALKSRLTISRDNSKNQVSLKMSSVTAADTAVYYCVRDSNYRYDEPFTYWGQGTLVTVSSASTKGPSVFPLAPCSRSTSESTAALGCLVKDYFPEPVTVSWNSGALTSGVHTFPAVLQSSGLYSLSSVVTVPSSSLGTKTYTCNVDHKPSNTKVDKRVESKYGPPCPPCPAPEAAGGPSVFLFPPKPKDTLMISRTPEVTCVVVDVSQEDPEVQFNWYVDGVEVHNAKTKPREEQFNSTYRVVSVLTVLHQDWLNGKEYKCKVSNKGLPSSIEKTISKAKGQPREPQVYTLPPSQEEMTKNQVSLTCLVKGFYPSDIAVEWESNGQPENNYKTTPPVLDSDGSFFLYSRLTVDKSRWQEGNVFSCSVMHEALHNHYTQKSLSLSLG
light: EIVLTQSPDTLSVTPKEKVTLTCRASQSIGTNIHWFQQKPGQSPKLLIKYASESISGVPSRFSGSGSGTDFTLTINSVEAEDAATYYCQQSNSWPYTFGQGTKLEIKRTVAAPSVFIFPPSDEQLKSGTASVVCLLNNFYPREAKVQWKVDNALQSGNSQESVTEQDSKDSTYSLSSTLTLSKADYEKHKVYACEVTHQGLSSPVTKSFNRGEC
notes: as for B1
Take B4: the Kd was 1.02 nM in assay [1] and 5.97 nM in assay [6]. For the same molecule, the values for the koff in [1] and in [6] were 0.000803 s⁻¹ and 0.000208 s⁻¹, respectively. The kon was found to be 787000 M⁻¹ s⁻¹ in assay [1] and 34800 M⁻¹ s⁻¹ in [6]. Further, the EC50 was found to be 1 nM in [2]; 9.8 nM in assay [3]; 11.9 nM in [4]; 0.16 nM in [5]; 0.15 nM in [7]; 0.41 nM in [8]. The EC50 in [10] was determined as 7.2 nM; in assay [11] it was 1.2 nM; in assay [12] it was 2.03 nM; in assay [13] it was 2.95 nM. In assay [9], the IC50 was determined as 3.4 nM. Also, the “EC50 [nM] With RKO cells” value in assay [14] was 0.181 nM.

The values above are taken from US20210363257A1 (Pieris, published 2021).
